Where no end group is shown, it is not given here.
B1: Val^8-Leu^25-GLP-1 (7-37) OH (peptide)
peptide: HVEGTFTSDVSSYLEGQALKEFIAWLVKGRG-OH
B2: Val^8-Tyr^12-Tyr^16-GLP-1 (7-37) OH (peptide)
peptide: HVEGTYTSDYSSYLEGQAAKEFIAWLVKGRG-OH
B3: Val^8-Trp^12-Glu^22-GLP-1 (7-37) OH (peptide)
peptide: HVEGTWTSDVSSYLEEQAAKEFIAWLVKGRG-OH
B4: Val^8-Tyr^12-Glu^22-GLP-1 (7-37) OH (peptide)
peptide: HVEGTYTSDVSSYLEEQAAKEFIAWLVKGRG-OH
B5: Val^8-Tyr^16-Phe^19-GLP-1 (7-37) OH (peptide)
peptide: HVEGTFTSDYSSFLEGQAAKEFIAWLVKGRG-OH
B6: Val^8-Leu^16-Glu^22-GLP-1 (7-37) OH (peptide)
peptide: HVEGTFTSDLSSYLEEQAAKEFIAWLVKGRG-OH
B7: Val^8-Ile^16-Glu^22-GLP-1 (7-37) OH (peptide)
peptide: HVEGTFTSDISSYLEEQAAKEFIAWLVKGRG-OH
B8: Val^8-Phe^16-Glu^22-GLP-1 (7-37) OH (peptide)
peptide: HVEGTFTSDFSSYLEEQAAKEFIAWLVKGRG-OH
B9: Val^8-Phe^18-Glu^22-GLP-1 (7-37) OH (peptide)
peptide: HVEGTFTSDVSFYLEEQAAKEFIAWLVKGRG-OH
B10: Val^8-Ile^18-Glu^22-GLP-1 (7-37) OH (peptide)
peptide: HVEGTFTSDVSIYLEEQAAKEFIAWLVKGRG-OH
B11: Gly^8-GLP-1 (7-37) OH (peptide)
peptide: HGEGTFTSDVSSYLEGQAAKEFIAWLVKGRG-OH
B12: Val^8-Lys^18-Glu^22-GLP-1 (7-37) OH (peptide)
peptide: HVEGTFTSDVSKYLEEQAAKEFIAWLVKGRG-OH
B13: Val^8-Trp^19-Glu^22-GLP-1 (7-37) OH (peptide)
peptide: HVEGTFTSDVSSWLEEQAAKEFIAWLVKGRG-OH
B14: Val^8-Phe^19-Glu^22-GLP-1 (7-37) OH (peptide)
peptide: HVEGTFTSDVSSFLEEQAAKEFIAWLVKGRG-OH
B15: Val^8-Phe^20-Glu^22-GLP-1 (7-37) OH (peptide)
peptide: HVEGTFTSDVSSYFEEQAAKEFIAWLVKGRG-OH
B16: Val^8-Glu^22-Leu^25-GLP-1 (7-37) OH (peptide)
peptide: HVEGTFTSDVSSYLEEQALKEFIAWLVKGRG-OH
B17: Val^8-Glu^22-Ile^25-GLP-1 (7-37) OH (peptide)
peptide: HVEGTFTSDVSSYLEEQAIKEFIAWLVKGRG-OH
B18: Val^8-Glu^22-Ile^27-GLP-1 (7-37) OH (peptide)
peptide: HVEGTFTSDVSSYLEEQAAKIFIAWLVKGRG-OH
B19: Val^8-Glu^22-His^37-GLP-1 (7-37) OH (peptide)
peptide: HVEGTFTSDVSSYLEEQAAKEFIAWLVKGRH-OH
B20: Val^8-Asp^9-Ile^11-Tyr^16-Glu^22-GLP-1 (7-37) OH (peptide)
peptide: HVDGIFTSDYSSYLEEQAAKEFIAWLVKGRG-OH
B21: Val^8-Tyr^16-Trp^19-Glu^22-GLP-1 (7-37) OH (peptide)
peptide: HVEGTFTSDYSSWLEEQAAKEFIAWLVKGRG-OH
B22: Val^8-Trp^16-Glu^22-Val^25-Ile^33-GLP-1 (7-37) OH (peptide)
peptide: HVEGTFTSDWSSYLEEQAVKEFIAWLIKGRG-OH
B23: Val^8-Trp^16-Glu^22-Ile^33-GLP-1 (7-37) OH (peptide)
peptide: HVEGTFTSDWSSYLEEQAAKEFIAWLIKGRG-OH
B24: Val^8-Tyr^12-GLP-1 (7-36) NH2 (peptide)
peptide: HVEGTYTSDVSSYLEGQAAKEFIAWLVKGR-NH2
B25: Val^8-Trp^16-Glu^22-Val^25-GLP-1 (7-37) OH (peptide)
peptide: HVEGTFTSDWSSYLEEQAVKEFIAWLVKGRG-OH
B26: Gly^8-His^11-GLP-1 (7-37) OH (peptide)
peptide: HGEGHFTSDVSSYLEGQAAKEFIAWLVKGRG-OH
B27: Val^8-Glu^16-GLP-1 (7-37) OH (peptide)
peptide: HVEGTFTSDESSYLEGQAAKEFIAWLVKGRG-OH
B28: Val^8-Ala^16-GLP-1 (7-37) OH (peptide)
peptide: HVEGTFTSDASSYLEGQAAKEFIAWLVKGRG-OH
B29: Val^8-Lys^20-GLP-1 (7-37) OH (peptide)
peptide: HVEGTFTSDVSSYKEGQAAKEFIAWLVKGRG-OH
B30: Gln^22-GLP-1 (7-37) OH (peptide)
peptide: HAEGTFTSDVSSYLEQQAAKEFIAWLVKGRG-OH
B31: Val^8-Ala^22-GLP-1 (7-37) OH (peptide)
peptide: HVEGTFTSDVSSYLEAQAAKEFIAWLVKGRG-OH
B32: Val^8-Trp^12-GLP-1 (7-37) OH (peptide)
peptide: HVEGTWTSDVSSYLEGQAAKEFIAWLVKGRG-OH
B33: Val^8-Ser^22-GLP-1 (7-37) OH (peptide)
peptide: HVEGTFTSDVSSYLESQAAKEFIAWLVKGRG-OH
B34: Val^8-Asp^22-GLP-1 (7-37) OH (peptide)
peptide: HVEGTFTSDVSSYLEDQAAKEFIAWLVKGRG-OH
B35: Val^8-Glu^22-GLP-1 (7-37) OH (peptide)
peptide: HVEGTFTSDVSSYLEEQAAKEFIAWLVKGRG-OH
B36: Val^8-Lys^22-GLP-1 (7-37) OH (peptide)
peptide: HVEGTFTSDVSSYLEKQAAKEFIAWLVKGRG-OH
B37: Val^8-His^22-GLP-1 (7-37) OH (peptide)
peptide: HVEGTFTSDVSSYLEHQAAKEFIAWLVKGRG-OH
B38: Val^8-Lys^22-GLP-1 (7-36) NH2 (peptide)
peptide: HVEGTFTSDVSSYLEKQAAKEFIAWLVKGR-NH2
B39: Val^8-Lys^23-GLP-1 (7-37) OH (peptide)
peptide: HVEGTFTSDVSSYLEGKAAKEFIAWLVKGRG-OH
B40: Val^8-His^26-GLP-1 (7-37) OH (peptide)
peptide: HVEGTFTSDVSSYLEGQAAHEFIAWLVKGRG-OH
B41: Val^8-Leu^16-GLP-1 (7-37) OH (peptide)
peptide: HVEGTFTSDLSSYLEGQAAKEFIAWLVKGRG-OH
B42: Val^8-Glu^26-GLP-1 (7-37) OH (peptide)
peptide: HVEGTFTSDVSSYLEGQAAEEFIAWLVKGRG-OH
B43: Val^8-His^27-GLP-1 (7-37) OH (peptide)
peptide: HVEGTFTSDVSSYLEGQAAKHFIAWLVKGRG-OH
B44: Gly^8-Glu^30-GLP-1 (7-37) OH (peptide)
peptide: HGEGTFTSDVSSYLEGQAAKEFIEWLVKGRG-OH
B45: Val^8-Asp^30-GLP-1 (7-37) OH (peptide)
peptide: HVEGTFTSDVSSYLEGQAAKEFIDWLVKGRG-OH
B46: Val^8-Ser^30-GLP-1 (7-37) OH (peptide)
peptide: HVEGTFTSDVSSYLEGQAAKEFISWLVKGRG-OH
B47: Val^8-His^30-GLP-1 (7-37) OH (peptide)
peptide: HVEGTFTSDVSSYLEGQAAKEFIHWLVKGRG-OH
B48: Val^8-Ala^33-GLP-1 (7-37) OH (peptide)
peptide: HVEGTFTSDVSSYLEGQAAKEFIAWLAKGRG-OH
B49: Val^8-Glu^34-GLP-1 (7-37) OH (peptide)
peptide: HVEGTFTSDVSSYLEGQAAKEFIAWLVEGRG-OH
B50: Val^8-Pro^35-GLP-1 (7-37) OH (peptide)
peptide: HVEGTFTSDVSSYLEGQAAKEFIAWLVKPRG-OH
B51: Val^8-His^35-GLP-1 (7-37) OH (peptide)
peptide: HVEGTFTSDVSSYLEGQAAKEFIAWLVKHRG-OH
B52: Val^8-Glu^35-GLP-1 (7-37) OH (peptide)
peptide: HVEGTFTSDVSSYLEGQAAKEFIAWLVKERG-OH
B53: Val^8-Glu^36-GLP-1 (7-37) OH (peptide)
peptide: HVEGTFTSDVSSYLEGQAAKEFIAWLVKGEG-OH
B54: Val^8-His^36-GLP-1 (7-37) OH (peptide)
peptide: HVEGTFTSDVSSYLEGQAAKEFIAWLVKGHG-OH

molecular target: human GLP-1 receptor (human, UniProt P43220 24-463); experiment: cell-based or functional assay

Row | Binder | GLP-1 receptor activation relative to Val^8-GLP-1 (7-37) OH
1 | B1 | 0.5 relative to Val^8-GLP-1 (7-37) OH
2 | B2 | 1.5 relative to Val^8-GLP-1 (7-37) OH
3 | B3 | 1.7 relative to Val^8-GLP-1 (7-37) OH
4 | B4 | 2.7 relative to Val^8-GLP-1 (7-37) OH
5 | B5 | 2.8 relative to Val^8-GLP-1 (7-37) OH
6 | B6 | 4.3 relative to Val^8-GLP-1 (7-37) OH
7 | B7 | 3.3 relative to Val^8-GLP-1 (7-37) OH
8 | B8 | 2.3 relative to Val^8-GLP-1 (7-37) OH
9 | B9 | 2 relative to Val^8-GLP-1 (7-37) OH
10 | B10 | 4 relative to Val^8-GLP-1 (7-37) OH
11 | B11 | 1.7 relative to Val^8-GLP-1 (7-37) OH
12 | B12 | 2.5 relative to Val^8-GLP-1 (7-37) OH
13 | B13 | 3.2 relative to Val^8-GLP-1 (7-37) OH
14 | B14 | 1.5 relative to Val^8-GLP-1 (7-37) OH
15 | B15 | 2.7 relative to Val^8-GLP-1 (7-37) OH
16 | B16 | 2.8 relative to Val^8-GLP-1 (7-37) OH
17 | B17 | 3.1 relative to Val^8-GLP-1 (7-37) OH
18 | B18 | 2 relative to Val^8-GLP-1 (7-37) OH
19 | B19 | 4.7 relative to Val^8-GLP-1 (7-37) OH
20 | B20 | 4.3 relative to Val^8-GLP-1 (7-37) OH
21 | B21 | 3.5 relative to Val^8-GLP-1 (7-37) OH
22 | B22 | 5 relative to Val^8-GLP-1 (7-37) OH
23 | B23 | 4.1 relative to Val^8-GLP-1 (7-37) OH
24 | B24 | 1.1 relative to Val^8-GLP-1 (7-37) OH
25 | B25 | 4.4 relative to Val^8-GLP-1 (7-37) OH
26 | B26 | 0.6 relative to Val^8-GLP-1 (7-37) OH
27 | B27 | 0.1 relative to Val^8-GLP-1 (7-37) OH

Row | Binder | GLP-1 receptor activation relative to Val^8-GLP-1 (7-37) OH
28 | B28 | 0.25 relative to Val^8-GLP-1 (7-37) OH
29 | B29 | 0.7 relative to Val^8-GLP-1 (7-37) OH
30 | B30 | 0.9 relative to Val^8-GLP-1 (7-37) OH
31 | B31 | 1.2 relative to Val^8-GLP-1 (7-37) OH
32 | B32 | 1.1 relative to Val^8-GLP-1 (7-37) OH
33 | B33 | 1.1 relative to Val^8-GLP-1 (7-37) OH
34 | B34 | 0.9 relative to Val^8-GLP-1 (7-37) OH
35 | B35 | 2.9 relative to Val^8-GLP-1 (7-37) OH
36 | B36 | 1.3 relative to Val^8-GLP-1 (7-37) OH
37 | B37 | 0.3 relative to Val^8-GLP-1 (7-37) OH
38 | B38 | 1.2 relative to Val^8-GLP-1 (7-37) OH
39 | B39 | 0.4 relative to Val^8-GLP-1 (7-37) OH
40 | B40 | 3.5 relative to Val^8-GLP-1 (7-37) OH
41 | B41 | 1.1 relative to Val^8-GLP-1 (7-37) OH
42 | B42 | 3.3 relative to Val^8-GLP-1 (7-37) OH
43 | B43 | 0.8 relative to Val^8-GLP-1 (7-37) OH
44 | B44 | 0.6 relative to Val^8-GLP-1 (7-37) OH
45 | B45 | 0.3 relative to Val^8-GLP-1 (7-37) OH
46 | B46 | 0.4 relative to Val^8-GLP-1 (7-37) OH
47 | B47 | 0.4 relative to Val^8-GLP-1 (7-37) OH
48 | B48 | 0.2 relative to Val^8-GLP-1 (7-37) OH
49 | B49 | 0.4 relative to Val^8-GLP-1 (7-37) OH
50 | B50 | 0.2 relative to Val^8-GLP-1 (7-37) OH
51 | B51 | 0.9 relative to Val^8-GLP-1 (7-37) OH
52 | B52 | 0.3 relative to Val^8-GLP-1 (7-37) OH
53 | B53 | 0.2 relative to Val^8-GLP-1 (7-37) OH
54 | B54 | 0.5 relative to Val^8-GLP-1 (7-37) OH

Reference: patent publication US20040235726A1, “Glucagon-like peptides (glp-1) and treatment of respiratory distress” (priority 2001, published 2004)
